Results taken from paper PMC7695694, “Yeast Nup84-Nup133 complex structure details flexibility and reveals conservation of the membrane anchoring ALPS motif” (Nature Communications, 2020).

Assays:
Details in all cases: both partners purified
[1] = target: T1, Nup133 N-terminal domain (Nup133NTD, residues 55-481, S. cerevisiae) (S. cerevisiae, UniProt P36161); assay: crystal structure; Nup133NTD-VHH-SAN5, molecular replacement; six copies in the asymmetric unit; crystals at 18 °C, PEG MME 2,000, potassium chloride, Tris/HCl pH 8.0
T1 construct: Nup133, S. cerevisiae, N-terminal beta-propeller domain, residues 55-481; The 6xHis tag is 3C cleavable; also called scNup133NTD; WT-Nup133NTD; source: E. coli LOBSTR-RIL(DE3), purified (Ni Sepharose, Superdex 75)

[2] = target: T2, Nup84-Nup133CTD heterodimeric complex (S. cerevisiae) (Saccharomyces cerevisiae (strain ATCC …, UniProt P52891;P36161)); assay: crystal structure; Nup84-Nup133CTD with VHH-SAN8 and VHH-SAN9, 7.4 Å; crystallised under the same conditions and in the same crystal form as the VHH-SAN8 complex
T2 construct: Nup84, S. cerevisiae, full length; source: E. coli LOBSTR-RIL(DE3), co-expressed from a bicistronic vector, purified (Ni Sepharose, SP Sepharose, Superdex 200)

[3] = target: T3, Nup84 (full-length, S. cerevisiae) (S. cerevisiae, UniProt P52891); assay: as above
T3 construct: Nup84, S. cerevisiae, full length; The N-terminal 10xHis-8xArg-SUMO tag is 3C cleavable; also called scNup84

[4] = target: T1, Nup133 N-terminal domain (Nup133NTD, …); assay: crystal structure; Nup133NTD-VHH-SAN4, 2.1 Å, molecular replacement; crystals at 18 °C, PEG 3,350, ammonium sulfate, Bis-Tris/HCl pH 5.5
[5] = target: T2, Nup84-Nup133CTD heterodimeric complex …; assay: crystal structure; Nup84-Nup133CTD-VHH-SAN8, 6.4 Å, SAD with a [TeW6O24]6- derivative; crystals at 18 °C, PEG 8,000, ethylene glycol, imidazole/MES pH 6.5
[6] = target: T3, Nup84 (full-length, S. cerevisiae); assay: as above

T2 sequence (P52891 whole entry, chain 1 of 2): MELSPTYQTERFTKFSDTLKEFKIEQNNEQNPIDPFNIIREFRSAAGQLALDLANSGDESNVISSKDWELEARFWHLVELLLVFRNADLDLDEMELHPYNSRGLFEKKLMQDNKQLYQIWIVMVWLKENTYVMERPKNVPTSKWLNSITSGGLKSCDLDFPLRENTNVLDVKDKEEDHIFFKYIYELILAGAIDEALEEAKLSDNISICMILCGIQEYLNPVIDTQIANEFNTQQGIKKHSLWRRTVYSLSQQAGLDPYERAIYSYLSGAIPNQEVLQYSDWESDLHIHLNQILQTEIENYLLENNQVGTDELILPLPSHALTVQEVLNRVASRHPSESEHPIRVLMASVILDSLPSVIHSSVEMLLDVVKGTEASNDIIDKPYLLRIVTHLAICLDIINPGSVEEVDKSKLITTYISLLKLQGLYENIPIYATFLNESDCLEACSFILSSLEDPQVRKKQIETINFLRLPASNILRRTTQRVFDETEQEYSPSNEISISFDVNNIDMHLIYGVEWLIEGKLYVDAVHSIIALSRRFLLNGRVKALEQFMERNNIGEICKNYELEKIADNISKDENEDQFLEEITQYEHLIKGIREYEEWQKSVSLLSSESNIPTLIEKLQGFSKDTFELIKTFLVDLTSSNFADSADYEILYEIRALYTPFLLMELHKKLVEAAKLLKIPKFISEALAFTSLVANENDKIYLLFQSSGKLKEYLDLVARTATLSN
T2 sequence (P36161 521-1157, chain 2 of 2): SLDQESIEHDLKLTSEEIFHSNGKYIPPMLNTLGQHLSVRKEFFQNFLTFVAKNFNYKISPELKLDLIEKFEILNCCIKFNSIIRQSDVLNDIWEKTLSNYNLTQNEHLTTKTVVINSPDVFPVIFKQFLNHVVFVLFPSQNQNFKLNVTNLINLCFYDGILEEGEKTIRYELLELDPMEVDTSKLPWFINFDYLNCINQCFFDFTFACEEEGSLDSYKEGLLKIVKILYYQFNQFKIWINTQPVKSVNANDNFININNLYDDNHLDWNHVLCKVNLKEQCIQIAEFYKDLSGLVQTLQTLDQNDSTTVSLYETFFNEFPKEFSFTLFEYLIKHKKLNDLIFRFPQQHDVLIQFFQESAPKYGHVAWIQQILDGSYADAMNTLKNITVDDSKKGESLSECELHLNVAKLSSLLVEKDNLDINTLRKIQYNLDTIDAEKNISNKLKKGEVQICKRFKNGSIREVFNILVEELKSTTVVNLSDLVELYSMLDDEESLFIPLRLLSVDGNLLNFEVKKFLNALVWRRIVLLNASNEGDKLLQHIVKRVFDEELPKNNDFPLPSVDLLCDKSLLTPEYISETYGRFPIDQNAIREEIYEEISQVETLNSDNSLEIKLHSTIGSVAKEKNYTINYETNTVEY
T3 sequence (P52891 whole entry): as the sequence (P52891 whole entry, chain 1 of 2) above
T1 sequence (P36161 55-481): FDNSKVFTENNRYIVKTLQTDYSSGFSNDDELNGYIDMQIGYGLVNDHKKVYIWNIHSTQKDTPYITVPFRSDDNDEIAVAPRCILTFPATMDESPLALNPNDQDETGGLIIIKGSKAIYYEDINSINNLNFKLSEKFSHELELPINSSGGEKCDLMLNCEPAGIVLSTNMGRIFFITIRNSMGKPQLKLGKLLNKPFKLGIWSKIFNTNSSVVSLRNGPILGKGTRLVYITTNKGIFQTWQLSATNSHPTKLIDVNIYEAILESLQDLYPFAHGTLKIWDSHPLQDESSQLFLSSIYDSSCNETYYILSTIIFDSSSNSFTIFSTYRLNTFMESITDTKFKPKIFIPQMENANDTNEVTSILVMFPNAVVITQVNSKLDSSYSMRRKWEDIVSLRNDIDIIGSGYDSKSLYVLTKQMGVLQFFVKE

B1: VHH-SAN5 (VHH)
VHH: QVQLVESGGGLVQAGGSLRLSCAASGSIGSLDAMAWYRRAPGKQRERVASISRYGTYYVDSVKGRFTISRDNAKNTVYLQMNSLKPEDTGVYYCKGVMEVGGVIDEYWGQGTQVTVSS
notes: structure with this nanobody deposited as PDB 6X04; also called nanobody VHH-SAN5; source: E. coli LOBSTR-RIL(DE3), purified (Ni Sepharose, tag cut with bdSENP1, Superdex 75); not shown: 14xHis, N-terminal, cleaved; bdSUMO, N-terminal, cleaved
binding result [1]: binds

B2: VHH-SAN9 (VHH)
VHH: QVQLVESGGGSVQAGGSLRLSCAVSGGTLSTLAMGWFRQAPGQEREFVARIGWTNGDTGYADSVKGRFTISRDNVKNTVYLQMNNLKPEDTALYYCATRRPYGSTLYPPNTESAHDNWGQGTQVTVSS
notes: structure with this nanobody deposited as PDB 6X03 (modelled as a generic nanobody without CDRs); also called VHH9; nanobody VHH-SAN9; source: E. coli LOBSTR-RIL(DE3), purified (Ni Sepharose, tag cut with bdSENP1, Superdex 75); not shown: 14xHis, N-terminal, cleaved; bdSUMO, N-terminal, cleaved
binding result [2]: binds
binding result [3]: binds

B3: VHH-SAN4 (VHH)
VHH: QLQLVESGGGSVQAGGSLTLSCTASESISKRIHGIGWFRQRRGEQREEIAYITTGGRPNLGDSVKDRFTISRDKSNGTVYLQMNSLKPEDTAVYYCHGRGRWWGTEGRLDYWGQGTQVTVSS
notes: structure with this nanobody deposited as PDB 6X05; also called nanobody VHH-SAN4; source: E. coli LOBSTR-RIL(DE3), purified (Ni Sepharose, tag cut with bdSENP1, Superdex 75); not shown: 14xHis, N-terminal, cleaved; bdSUMO, N-terminal, cleaved
binding result [4]: binds

B4: VHH-SAN8 (VHH)
VHH: QLQLVETGGGLVQAGGSLRLSCVASGRTFTSYAMGWFRQAPGKEREFVAAISRLASGTDYADSVKGRFTISRNNDKNTVYLQMNNLIPEDTAVYYCAALQALRFSLPIAMATMKNGRADSWGQGTQVTVSS
notes: structures with this nanobody deposited as PDB 6X02 and 6X03 (modelled as a generic nanobody without CDRs); Selected by phage display from an alpaca immunised with the full-length Y complex, panned against Nup84; also called VHH8; nanobody VHH-SAN8; source: E. coli LOBSTR-RIL(DE3), purified (Ni Sepharose, tag cut with bdSENP1, Superdex 75); not shown: 14xHis, N-terminal, cleaved; bdSUMO, …
binding result [5]: binds
binding result [6]: binds
